Starred links: 1 amine or outer side, 2 acyl side, 3 side chain; linkers in the order of their positions; H or OH if unused. Positions of bridges follow the written chain, without caps; N, C: chain ends. *: point of attachment. C20 diacid = O=C(O)CCCCCCCCCCCCCCCCCCC(=O)*; γGlu = O=C(O)[C@H](CCC(=O)[*:2])N[*:1]
T1: rat calcitonin (a) receptor (rat, UniProt P32214 25-516)
T1 sequence (looked up): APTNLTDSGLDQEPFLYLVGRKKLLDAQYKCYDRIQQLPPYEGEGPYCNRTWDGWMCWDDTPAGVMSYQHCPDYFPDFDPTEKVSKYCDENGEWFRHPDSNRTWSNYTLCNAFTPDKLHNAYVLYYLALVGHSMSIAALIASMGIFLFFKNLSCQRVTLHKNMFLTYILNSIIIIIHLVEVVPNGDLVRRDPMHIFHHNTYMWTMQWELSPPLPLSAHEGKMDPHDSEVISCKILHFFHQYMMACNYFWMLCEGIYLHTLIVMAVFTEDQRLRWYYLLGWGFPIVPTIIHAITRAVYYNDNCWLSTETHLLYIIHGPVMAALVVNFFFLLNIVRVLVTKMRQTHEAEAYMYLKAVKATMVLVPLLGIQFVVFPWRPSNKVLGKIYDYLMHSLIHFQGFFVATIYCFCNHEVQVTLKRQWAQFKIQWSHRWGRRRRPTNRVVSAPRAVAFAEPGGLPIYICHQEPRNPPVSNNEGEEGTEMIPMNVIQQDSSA

T2: rat amylin 3(a) receptor (rat calcitonin(a) receptor + rat RAMP3) (rat, UniProt P32214 25-516; Q9JJ73 23-147)
T2 sequence (looked up) 1: T1 sequence (looked up)
T2 sequence (looked up) 2: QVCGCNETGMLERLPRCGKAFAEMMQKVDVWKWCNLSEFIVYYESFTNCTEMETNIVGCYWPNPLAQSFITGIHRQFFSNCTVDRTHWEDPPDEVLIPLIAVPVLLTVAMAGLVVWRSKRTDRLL

T3: human calcitonin (a) receptor (human, UniProt P30988 25-474)
T3 sequence (looked up): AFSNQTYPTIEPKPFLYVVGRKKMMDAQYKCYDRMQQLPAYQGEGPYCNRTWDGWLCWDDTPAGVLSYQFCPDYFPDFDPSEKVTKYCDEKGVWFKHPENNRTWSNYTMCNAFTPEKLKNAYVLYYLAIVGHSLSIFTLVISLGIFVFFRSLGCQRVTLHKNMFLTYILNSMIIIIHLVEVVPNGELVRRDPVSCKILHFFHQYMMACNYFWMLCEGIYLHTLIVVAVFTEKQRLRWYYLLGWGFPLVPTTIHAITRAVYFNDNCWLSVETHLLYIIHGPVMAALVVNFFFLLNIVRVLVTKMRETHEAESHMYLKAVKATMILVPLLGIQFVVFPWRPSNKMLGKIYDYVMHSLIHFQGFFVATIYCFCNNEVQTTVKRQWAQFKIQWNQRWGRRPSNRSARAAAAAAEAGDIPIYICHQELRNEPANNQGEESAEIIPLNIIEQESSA

T4: human amylin 3(a) receptor (human calcitonin receptor + RAMP-3) (human, UniProt P30988 25-474; O60896 24-148)
T4 sequence (looked up) 1: T3 sequence (looked up)
T4 sequence (looked up) 2: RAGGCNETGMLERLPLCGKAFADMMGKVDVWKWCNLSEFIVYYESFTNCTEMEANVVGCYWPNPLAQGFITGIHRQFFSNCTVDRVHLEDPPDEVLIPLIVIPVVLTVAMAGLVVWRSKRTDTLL

B1: N-alpha-[(S)-4-Carboxy-4-(19-carboxynonadecanoylamino)butyryl]-His-His-[His1,His3,Glu14,His17,His35]-pramlintide (peptide)
peptide: {C20 diacid-γGlu}-HHHCHTATCATQRLAEFLHHSSNNFGPILPPTNVGSHTY-NH2
modifications: disulfide 4-9
SMILES: CC[C@H](C)[C@H](NC(=O)[C@@H]1CCCN1C(=O)CNC(=O)[C@H](Cc1ccccc1)NC(=O)[C@H](CC(N)=O)NC(=O)[C@H](CC(N)=O)NC(=O)[C@H](CO)NC(=O)[C@H](CO)NC(=O)[C@H](Cc1c[nH]cn1)NC(=O)[C@H](Cc1c[nH]cn1)NC(=O)[C@H](CC(C)C)NC(=O)[C@H](Cc1ccccc1)NC(=O)[C@H](CCC(=O)O)NC(=O)[C@H](C)NC(=O)[C@H](CC(C)C)NC(=O)[C@H](CCCNC(=N)N)NC(=O)[C@H](CCC(N)=O)NC(=O)[C@@H](NC(=O)[C@H](C)NC(=O)[C@@H]1CSSC[C@H](NC(=O)[C@H](Cc2c[nH]cn2)NC(=O)[C@H](Cc2c[nH]cn2)NC(=O)[C@H](Cc2c[nH]cn2)NC(=O)CC[C@H](NC(=O)CCCCCCCCCCCCCCCCCCC(=O)O)C(=O)O)C(=O)N[C@@H](Cc2c[nH]cn2)C(=O)N[C@@H]([C@@H](C)O)C(=O)N[C@@H](C)C(=O)N[C@@H]([C@@H](C)O)C(=O)N1)[C@@H](C)O)C(=O)N[C@@H](CC(C)C)C(=O)N1CCC[C@H]1C(=O)N1CCC[C@H]1C(=O)N[C@H](C(=O)N[C@@H](CC(N)=O)C(=O)N[C@H](C(=O)NCC(=O)N[C@@H](CO)C(=O)N[C@@H](Cc1c[nH]cn1)C(=O)N[C@H](C(=O)N[C@@H](Cc1ccc(O)cc1)C(N)=O)[C@@H](C)O)C(C)C)[C@@H](C)O
B2: N-alpha-[(S)-4-Carboxy-4-(19-carboxynonadecanoylamino)butyryl]-His-His-[His1,Glu14,His17,His35]-pramlintide (peptide)
peptide: {C20 diacid-γGlu}-HHHCNTATCATQRLAEFLHHSSNNFGPILPPTNVGSHTY-NH2
modifications: disulfide 4-9
SMILES: CC[C@H](C)[C@H](NC(=O)[C@@H]1CCCN1C(=O)CNC(=O)[C@H](Cc1ccccc1)NC(=O)[C@H](CC(N)=O)NC(=O)[C@H](CC(N)=O)NC(=O)[C@H](CO)NC(=O)[C@H](CO)NC(=O)[C@H](Cc1c[nH]cn1)NC(=O)[C@H](Cc1c[nH]cn1)NC(=O)[C@H](CC(C)C)NC(=O)[C@H](Cc1ccccc1)NC(=O)[C@H](CCC(=O)O)NC(=O)[C@H](C)NC(=O)[C@H](CC(C)C)NC(=O)[C@H](CCCNC(=N)N)NC(=O)[C@H](CCC(N)=O)NC(=O)[C@@H](NC(=O)[C@H](C)NC(=O)[C@@H]1CSSC[C@H](NC(=O)[C@H](Cc2c[nH]cn2)NC(=O)[C@H](Cc2c[nH]cn2)NC(=O)[C@H](Cc2c[nH]cn2)NC(=O)CC[C@H](NC(=O)CCCCCCCCCCCCCCCCCCC(=O)O)C(=O)O)C(=O)N[C@@H](CC(N)=O)C(=O)N[C@@H]([C@@H](C)O)C(=O)N[C@@H](C)C(=O)N[C@@H]([C@@H](C)O)C(=O)N1)[C@@H](C)O)C(=O)N[C@@H](CC(C)C)C(=O)N1CCC[C@H]1C(=O)N1CCC[C@H]1C(=O)N[C@H](C(=O)N[C@@H](CC(N)=O)C(=O)N[C@H](C(=O)NCC(=O)N[C@@H](CO)C(=O)N[C@@H](Cc1c[nH]cn1)C(=O)N[C@H](C(=O)N[C@@H](Cc1ccc(O)cc1)C(N)=O)[C@@H](C)O)C(C)C)[C@@H](C)O
B3: N-alpha-[(S)-4-Carboxy-4-(19-carboxynonadecanoylamino)butyryl]-Glu-[Glu14,His17]-pramlintide (peptide)
peptide: {C20 diacid-γGlu}-EKCNTATCATQRLAEFLHHSSNNFGPILPPTNVGSNTY-NH2
modifications: disulfide 3-8; not fully specified; printed as N-alpha-[(S)-4-Carboxy-4-(19-carboxynonadecanoylamino)butyryl]-Glu-[Glu14,His17]-pramlintide
B4: N-alpha-[(S)-4-Carboxy-4-(19-carboxynonadecanoylamino)butyryl]-[Glu14,His17]-pramlintide (peptide)
peptide: {C20 diacid-γGlu}-KCNTATCATQRLAEFLHHSSNNFGPILPPTNVGSNTY-NH2
modifications: disulfide 2-7
SMILES: CC[C@H](C)[C@H](NC(=O)[C@@H]1CCCN1C(=O)CNC(=O)[C@H](Cc1ccccc1)NC(=O)[C@H](CC(N)=O)NC(=O)[C@H](CC(N)=O)NC(=O)[C@H](CO)NC(=O)[C@H](CO)NC(=O)[C@H](Cc1c[nH]cn1)NC(=O)[C@H](Cc1c[nH]cn1)NC(=O)[C@H](CC(C)C)NC(=O)[C@H](Cc1ccccc1)NC(=O)[C@H](CCC(=O)O)NC(=O)[C@H](C)NC(=O)[C@H](CC(C)C)NC(=O)[C@H](CCCNC(=N)N)NC(=O)[C@H](CCC(N)=O)NC(=O)[C@@H](NC(=O)[C@H](C)NC(=O)[C@@H]1CSSC[C@H](NC(=O)[C@H](CCCCN)NC(=O)CC[C@H](NC(=O)CCCCCCCCCCCCCCCCCCC(=O)O)C(=O)O)C(=O)N[C@@H](CC(N)=O)C(=O)N[C@@H]([C@@H](C)O)C(=O)N[C@@H](C)C(=O)N[C@@H]([C@@H](C)O)C(=O)N1)[C@@H](C)O)C(=O)N[C@@H](CC(C)C)C(=O)N1CCC[C@H]1C(=O)N1CCC[C@H]1C(=O)N[C@H](C(=O)N[C@@H](CC(N)=O)C(=O)N[C@H](C(=O)NCC(=O)N[C@@H](CO)C(=O)N[C@@H](CC(N)=O)C(=O)N[C@H](C(=O)N[C@@H](Cc1ccc(O)cc1)C(N)=O)[C@@H](C)O)C(C)C)[C@@H](C)O
B5: N-alpha-[(S)-4-Carboxy-4-(19-carboxynonadecanoylamino)butyryl]-Glu-[Arg1,Glu14,His17]-pramlintide (peptide)
peptide: {C20 diacid-γGlu}-ERCNTATCATQRLAEFLHHSSNNFGPILPPTNVGSNTY-NH2
modifications: disulfide 3-8
SMILES: CC[C@H](C)[C@H](NC(=O)[C@@H]1CCCN1C(=O)CNC(=O)[C@H](Cc1ccccc1)NC(=O)[C@H](CC(N)=O)NC(=O)[C@H](CC(N)=O)NC(=O)[C@H](CO)NC(=O)[C@H](CO)NC(=O)[C@H](Cc1c[nH]cn1)NC(=O)[C@H](Cc1c[nH]cn1)NC(=O)[C@H](CC(C)C)NC(=O)[C@H](Cc1ccccc1)NC(=O)[C@H](CCC(=O)O)NC(=O)[C@H](C)NC(=O)[C@H](CC(C)C)NC(=O)[C@H](CCCNC(=N)N)NC(=O)[C@H](CCC(N)=O)NC(=O)[C@@H](NC(=O)[C@H](C)NC(=O)[C@@H]1CSSC[C@H](NC(=O)[C@H](CCCNC(=N)N)NC(=O)[C@H](CCC(=O)O)NC(=O)CC[C@H](NC(=O)CCCCCCCCCCCCCCCCCCC(=O)O)C(=O)O)C(=O)N[C@@H](CC(N)=O)C(=O)N[C@@H]([C@@H](C)O)C(=O)N[C@@H](C)C(=O)N[C@@H]([C@@H](C)O)C(=O)N1)[C@@H](C)O)C(=O)N[C@@H](CC(C)C)C(=O)N1CCC[C@H]1C(=O)N1CCC[C@H]1C(=O)N[C@H](C(=O)N[C@@H](CC(N)=O)C(=O)N[C@H](C(=O)NCC(=O)N[C@@H](CO)C(=O)N[C@@H](CC(N)=O)C(=O)N[C@H](C(=O)N[C@@H](Cc1ccc(O)cc1)C(N)=O)[C@@H](C)O)C(C)C)[C@@H](C)O

Target: T1, rat calcitonin (a) receptor
Assay: cell-based or functional assay

| Binder | CTa receptor rat EC50 [pM] |
| --- | --- |
| B1 | 4870 |
| B2 | 1310 |
| B3 | 1390 |
| KCNTATCATQRLAEFLRHSSNNFGPILPPTNVGSNTP (N-alpha acylated: C20diacid-gGlu; disulfide Cys2-Cys7; C-terminal amide) [N-alpha-[(S)-4-Carboxy-4-(19-carboxynonadecanoylamino)butyryl]-[Glu14,Arg17,Pro37]-pramlintide] | 287 |
| B4 | 539 |

Target: T2, rat amylin 3(a) receptor (rat …)
Assay: cell-based or functional assay

| Binder | Amylin receptor rat EC50 [pM] |
| --- | --- |
| B1 | 401 |
| B2 | 200 |
| B3 | 476 |
| KCNTATCATQRLAEFLRHSSNNFGPILPPTNVGSNTP (N-alpha acylated: C20diacid-gGlu; disulfide Cys2-Cys7; C-terminal amide) [N-alpha-[(S)-4-Carboxy-4-(19-carboxynonadecanoylamino)butyryl]-[Glu14,Arg17,Pro37]-pramlintide] | 348 |
| B4 | 188 |

Target: T3, human calcitonin (a) receptor
Assay: cell-based or functional assay

| Binder | CTa receptor human EC50 [pM] |
| --- | --- |
| B1 | 543 |
| B2 | 156 |
| B5 | 184 |
| B3 | 214 |
| B4 | 107 |

Target: T4, human amylin 3(a) receptor (human …)
Assay: cell-based or functional assay

| Binder | Amylin receptor human EC50 [pM] |
| --- | --- |
| B1 | 603 |
| B2 | 164 |
| B5 | 119 |
| B3 | 130 |
| B4 | 121 |

— patent publication US20130005646A1 (Novo Nordisk, published 2013)
